Measured values from patent US20070042345.

System: F2C intracellular calcium ion indicator protein (GAP43 palmitoylation signal - ECFP - two alpha-spectrin calpain sensitive sequences - EYFP)

purified µ-calpain (Calpain I, Calbiochem, California, U.S.A.)
Western blot for fragmented F2C after incubation with purified µ-calpain in Ca-EGTA buffer: fragmented F2C signal was not detected (data not shown)
